Residue numbers refer to the chain shown, from its start. One block for each binder: values may come before it.
Columns and labels:
PDL1/His protein [1] = molecular target: T1, PDL1/His protein (human, UniProt Q9NZQ7 19-238, limits assumed, biotin-labeled in Examples 4 and 6 (site not stated); unlabeled in Example 9); test: relative affinity ranking, sandwich ELISA, biotin-PDL1/His titrated from 5 ug/mL
T1 construct: The reagent is named only PDL1/His; also called Biotin-labeled PDL1/His; Bio-PDL1; not shown: His tag
T1 sequence (Q9NZQ7 19-238 limits assumed): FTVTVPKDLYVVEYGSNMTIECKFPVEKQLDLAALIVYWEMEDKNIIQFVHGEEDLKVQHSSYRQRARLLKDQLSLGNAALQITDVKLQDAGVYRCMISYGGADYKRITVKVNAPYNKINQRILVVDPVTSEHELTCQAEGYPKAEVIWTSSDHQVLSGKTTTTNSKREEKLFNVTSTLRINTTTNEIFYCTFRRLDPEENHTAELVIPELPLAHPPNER
Method: The expression supernatants of the 11 single-point mutation molecules screened out in Example 4 and the 4 hotspot combination molecules screened out in Example 5 were subjected to relative affinity ranking. The specific process is as follows: The plate was coated with 1 μg/mL Goat-anti-human IgG Fc at 4° C. overnight. The coating solution was discarded the next day, and the plate was washed 5 times. Blocking was performed with 1% BSA at room temperature for 1 h, and the plate was washed 5 times. 50 μL of 2-fold diluted expression supernatant was added to each well and incubation was performed at room temperature for 1 h, and the plate was washed 5 times. Biotin-labeled PDL1/His diluted in series was added with 5 μg/mL in the first well, 3-fold dilution, and the last well as blank, and incubation was performed at room temperature for 1 h, and the plate was washed 5 times. SA-HRP was added, and incubation was performed at room temperature for 0.5 h, and the plate was washed 10 times. TMB color development was terminated after 4 min, and the absorbance at 450 nm was read.

PDL1/His protein [2] = molecular target: T1, PDL1/His protein; test: Biacore 8K (SPR), purified antibody
PDL1/His protein [3] = molecular target: T1, PDL1/His protein; test: hotspot screening sandwich ELISA, anti-human Fc 1.0 ug/mL, Bio-PDL1 4 ng/ml
Method: Goat-anti-human IgG Fc was subjected to serial dilution in Table 5 and coating was performed overnight at 4° C. The coating solution was discarded the next day, and the plate was washed 5 times. Blocking was performed with 1% BSA at room temperature for 1 h, and the plate was washed 5 times. 50 μL B378737 expression supernatant was added to each well, incubation was performed at room temperature for 1 h, and the plate was washed 5 times. Biotin-labeled PDL1/His protein diluted in series was added, incubation was performed at room temperature for 1 h, and the plate was washed 5 times. SA-HRP was added, incubation was performed at room temperature for 0.5 h, and the plate was washed 10 times. TMB color development was terminated after 4 min, and the absorbance at 450 nm was read. […] The sample was the mutant expressing supernatant, and the other processes were the same as above.

PDL1/His protein [4] = molecular target: T1, PDL1/His protein; test: sandwich ELISA screen of hotspot combinations, as in Example 4

B1: B378737-32 (VHH)
VHH: QVQLVESGGGLVQPGGSLRLSCAASARSINGQEWYRQAPGERRELVAGITAGGSAYYTDTVKGRFTISRDNAENTGYLQMNSLSPDDTAVYYCRRQYGPNWYWGQGTQVTVSS
notes: Single-point mutant of B378737 (position 32); not shown: human IgG Fc implied (supernatant captured with goat anti-human IgG Fc)
binding result (PDL1/His protein [1]): binds

B2: B378737-61-1 (VHH)
VHH: B1 VHH with Q32M, V61P
notes: Single-point mutant of B378737 (position 61); not shown: human IgG Fc implied (supernatant captured with goat anti-human IgG Fc)
binding result (PDL1/His protein [1]): binds

B3: B378737-61-4 (VHH)
VHH: B1 VHH with Q32M, V61T
notes: as for B2
binding result (PDL1/His protein [1]): binds

B4: B378737-61-6 (VHH)
VHH: B1 VHH with Q32M, V61K
notes: as for B2
binding result (PDL1/His protein [1]): binds

B5: B378737-ZH-1 (VHH)
VHH: B1 VHH with Y97F
notes: Hotspot combination (positions 32 and 97); not shown: human IgG Fc implied (supernatant captured with goat anti-human IgG Fc)
fold increase of affinity over the parent antibody B378737 (PDL1/His protein [2]): 10 times

B6: B378737-ZH-4 (VHH)
VHH: B1 VHH with V61H, Y97V
notes: Hotspot combination (positions 32, 61 and 97); not shown: human IgG Fc implied (supernatant captured with goat anti-human IgG Fc)
fold increase of affinity over the parent antibody B378737 (PDL1/His protein [2]): 12 times

B7: B378737-97-1 (VHH)
VHH: B1 VHH with Q32M, Y97F
notes: Single-point mutant of B378737 (position 97); not shown: human IgG Fc implied (supernatant captured with goat anti-human IgG Fc)
binding result (PDL1/His protein [3]): binds

B8: B378737-61-7 (VHH)
VHH: B1 VHH with Q32M, V61L
notes: as for B2
binding result (PDL1/His protein [1]): binds

B9: B378737-61-3 (VHH)
VHH: B1 VHH with Q32M, V61S
notes: as for B2
binding result (PDL1/His protein [1]): binds

Further lines, results first:

binding result (PDL1/His protein [3]): binds
B10: B378737-97-2 (VHH)
VHH: B1 VHH with Q3R, Q32M, Y97V
notes: Single-point mutant of B378737 (position 97); copied as printed; not shown: human IgG Fc implied (supernatant captured with goat anti-human IgG Fc)

binding result (PDL1/His protein [1]): binds
B11: B378737-51 (VHH)
VHH: B1 VHH with Q32M, A51S
notes: Single-point mutant of B378737 (position 51); not shown: human IgG Fc implied (supernatant captured with goat anti-human IgG Fc)

binding result (PDL1/His protein [4]): binds
B12: B378737-ZH-2 (VHH)
VHH: B1 VHH with Y97V
notes: as for B5

binding result (PDL1/His protein [1]): binds
B13: B378737-61-5 (VHH)
VHH: B1 VHH with Q32M, V61H
notes: as for B2

binding result (PDL1/His protein [1]): binds
B14: B378737-61-2 (VHH)
VHH: B1 VHH with Q32M, V61Y
notes: as for B2
